In patent US20060253917A1 (published 2006):
Each block holds one binder with its values, some of them ahead of it.

Columns and labels:
OsFDRMADS6 aa 1-186 = target: T1, OsFDRMADS6 aa 1-186 (Oryza sativa, UniProt P0C5B1 1-186); test: Y2H; output trait library
T1 construct: prey, AD fusion; also called PN19766
T1 sequence: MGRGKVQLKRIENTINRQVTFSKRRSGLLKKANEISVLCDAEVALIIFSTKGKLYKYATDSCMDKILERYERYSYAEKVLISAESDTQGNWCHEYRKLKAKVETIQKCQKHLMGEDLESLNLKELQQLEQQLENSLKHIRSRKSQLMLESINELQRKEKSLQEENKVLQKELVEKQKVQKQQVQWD
How it was run: (§1)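 Protein-protein interactions were detected with an automated, high-throughput yeast two-hybrid assay provided by Myriad Genetics Inc. (Salt Lake City, Utah). A bait clone encoding a defined amino-acid fragment of a rice protein was screened against a rice prey library, either the input trait or the output trait library. Prey clones were retrieved, and their encoding sequences were compared by BLAST against databases to identify the interacting proteins.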

OsMADS6 aa 116-250 = target: T2, OsMADS6 aa 116-250 (Oryza sativa, UniProt Q6EU39 116-250); test: Y2H; output trait library
T2 construct: prey, AD fusion; also called PN20233
T2 sequence: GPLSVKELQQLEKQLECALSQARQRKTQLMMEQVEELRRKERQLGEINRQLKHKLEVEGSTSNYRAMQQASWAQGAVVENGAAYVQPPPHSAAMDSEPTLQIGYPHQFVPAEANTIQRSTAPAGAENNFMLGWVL
How it was run: as §1

OsMADS5 aa 109-225 = target: T3, OsMADS5 aa 109-225 (Oryza sativa, UniProt A2Y9P0 109-225); test: Y2H; output trait library
T3 construct: prey, AD fusion; also called PN20770
T3 sequence: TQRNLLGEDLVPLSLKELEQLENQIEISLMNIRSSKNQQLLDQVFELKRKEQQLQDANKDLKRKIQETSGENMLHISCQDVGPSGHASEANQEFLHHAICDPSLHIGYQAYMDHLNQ
How it was run: as §1

OsMADS1 aa 95-257 = target: T4, OsMADS1 aa 95-257 (Oryza sativa, UniProt A2XDY1 95-257); test: Y2H; output trait library
T4 construct: prey, AD fusion; also called PN19788
T4 sequence: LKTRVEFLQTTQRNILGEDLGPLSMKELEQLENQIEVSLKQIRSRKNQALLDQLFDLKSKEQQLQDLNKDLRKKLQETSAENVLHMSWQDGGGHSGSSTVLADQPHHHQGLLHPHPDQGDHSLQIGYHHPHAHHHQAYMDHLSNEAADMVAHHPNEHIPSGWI
How it was run: as §1

OsMADS8 aa 107-248 = target: T5, OsMADS8 aa 107-248 (Oryza sativa, UniProt Q9SAR1 107-248); test: Y2H; output trait library
T5 construct: prey, AD fusion; also called PN20778; O. sativa MADS box protein MADS8
T5 sequence: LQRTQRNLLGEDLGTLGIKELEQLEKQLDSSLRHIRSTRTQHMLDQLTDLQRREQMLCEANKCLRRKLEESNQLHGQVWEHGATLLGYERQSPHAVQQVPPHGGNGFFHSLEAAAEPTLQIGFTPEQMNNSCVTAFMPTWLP
How it was run: as §1

OsFDRMADS8 aa 53-233 = target: T6, OsFDRMADS8 aa 53-233 (Oryza sativa, UniProt A2Z9Q7 53-233); test: Y2H; output trait library
T6 construct: prey, AD fusion; also called PN20698
T6 sequence: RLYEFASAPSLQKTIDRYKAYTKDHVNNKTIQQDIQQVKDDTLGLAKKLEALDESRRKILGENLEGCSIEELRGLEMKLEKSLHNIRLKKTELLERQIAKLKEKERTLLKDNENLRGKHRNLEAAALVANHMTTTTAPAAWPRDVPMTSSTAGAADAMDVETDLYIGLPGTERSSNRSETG
How it was run: as §1

OsMADS45 aa 75-249 = target: T7, OsMADS45 aa 75-249 (Oryza sativa, UniProt P0C5B0 75-249); test: Y2H; output trait library
T7 construct: prey, AD fusion; also called PN20231
T7 sequence: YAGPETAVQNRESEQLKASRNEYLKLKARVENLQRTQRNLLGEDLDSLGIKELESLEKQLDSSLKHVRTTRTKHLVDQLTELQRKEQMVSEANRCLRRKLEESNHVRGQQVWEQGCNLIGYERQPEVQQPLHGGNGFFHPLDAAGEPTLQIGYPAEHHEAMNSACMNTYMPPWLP
How it was run: as §1

OsMADS1 aa 100-231 = target: T8, OsMADS1 aa 100-231 (Oryza sativa, UniProt A2XDY1 100-231); test: Y2H; input trait library
T8 construct: prey, AD fusion; also called PN19788
T8 sequence: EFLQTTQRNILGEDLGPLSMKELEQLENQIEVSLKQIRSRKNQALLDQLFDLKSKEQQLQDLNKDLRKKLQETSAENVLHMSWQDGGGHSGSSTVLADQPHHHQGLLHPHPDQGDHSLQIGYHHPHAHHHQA
How it was run: as §1

OsMADS45 aa 96-249 = target: T9, OsMADS45 aa 96-249 (Oryza sativa, UniProt P0C5B0 96-249); test: Y2H; input trait library
T9 construct: prey, AD fusion; also called PN20231
T9 sequence: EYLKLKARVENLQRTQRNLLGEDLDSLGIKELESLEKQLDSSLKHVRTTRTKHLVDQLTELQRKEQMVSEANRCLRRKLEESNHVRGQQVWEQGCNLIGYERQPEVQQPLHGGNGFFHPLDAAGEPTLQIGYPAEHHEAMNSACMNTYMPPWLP
How it was run: as §1

OsMADS8 aa 75-248 = target: T10, OsMADS8 aa 75-248 (Oryza sativa, UniProt Q9SAR1 75-248); test: Y2H; input trait library
T10 construct: prey, AD fusion; also called PN20778
T10 sequence: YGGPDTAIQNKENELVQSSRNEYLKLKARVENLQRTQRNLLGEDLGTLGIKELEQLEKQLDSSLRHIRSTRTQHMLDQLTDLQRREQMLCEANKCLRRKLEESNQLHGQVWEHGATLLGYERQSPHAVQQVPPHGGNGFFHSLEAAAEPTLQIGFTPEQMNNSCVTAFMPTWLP
How it was run: as §1

OsMADS17 aa 106-249 = target: T11, OsMADS17 aa 106-249 (Oryza sativa, UniProt Q7XUN2 106-249); test: Y2H; input trait library
T11 construct: prey, AD fusion; also called PN20914; O. sativa MADS box transcription factor MADS17
T11 sequence: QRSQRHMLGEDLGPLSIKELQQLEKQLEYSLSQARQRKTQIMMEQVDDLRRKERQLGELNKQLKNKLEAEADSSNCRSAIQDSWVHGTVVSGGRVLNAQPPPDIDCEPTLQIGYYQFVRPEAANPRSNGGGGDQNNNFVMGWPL
How it was run: as §1

OsPN22834 aa 112-278 = target: T12, OsPN22834 aa 112-278 (Oryza sativa, UniProt Q01IK0 110-276); test: Y2H; input trait library
T12 construct: prey, AD fusion; also called Novel protein PN22834, similar to Oshox6, fragment
T12 sequence: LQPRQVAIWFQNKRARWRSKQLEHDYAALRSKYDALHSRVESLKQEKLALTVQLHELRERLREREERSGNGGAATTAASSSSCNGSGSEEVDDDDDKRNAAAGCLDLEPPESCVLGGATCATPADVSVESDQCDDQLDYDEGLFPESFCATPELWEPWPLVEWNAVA
How it was run: as §1

OsRAP1B aa 30-180 = target: T13, OsRAP1B aa 30-180 (Oryza sativa, UniProt Q10CQ1 30-180); test: Y2H; input trait library
T13 construct: bait, Gal4 DBD fusion; also called PN20232
T13 sequence: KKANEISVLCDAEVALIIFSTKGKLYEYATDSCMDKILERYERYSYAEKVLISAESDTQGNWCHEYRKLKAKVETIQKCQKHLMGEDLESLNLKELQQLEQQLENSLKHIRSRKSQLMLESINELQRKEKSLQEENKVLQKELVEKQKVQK
How it was run: as §1

OsMADS5 aa 108-225 = target: T14, OsMADS5 aa 108-225 (Oryza sativa, UniProt A2Y9P0 108-225); test: Y2H; output trait library
T14 construct: prey, AD fusion; also called PN20770
T14 sequence: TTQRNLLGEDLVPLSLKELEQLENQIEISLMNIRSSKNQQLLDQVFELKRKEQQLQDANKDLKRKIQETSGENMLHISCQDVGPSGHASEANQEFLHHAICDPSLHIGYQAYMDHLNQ
How it was run: as §1

OsMADS45 aa 69-249 = target: T15, OsMADS45 aa 69-249 (Oryza sativa, UniProt P0C5B0 69-249); test: Y2H; output trait library
T15 construct: prey, AD fusion; also called PN20231
T15 sequence: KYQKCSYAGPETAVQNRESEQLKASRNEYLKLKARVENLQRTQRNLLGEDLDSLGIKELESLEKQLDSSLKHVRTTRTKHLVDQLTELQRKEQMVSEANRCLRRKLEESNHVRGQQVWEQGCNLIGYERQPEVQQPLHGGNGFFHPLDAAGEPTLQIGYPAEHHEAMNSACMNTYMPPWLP
How it was run: as §1

OsBAA81880 aa 2-168 = target: T16, OsBAA81880 aa 2-168 (Oryza sativa, UniProt Q9XJ66 2-168); test: Y2H; output trait library
T16 construct: prey, AD fusion; also called PN20837; O. sativa MADS box-like protein
T16 sequence (Q9XJ66 2-168): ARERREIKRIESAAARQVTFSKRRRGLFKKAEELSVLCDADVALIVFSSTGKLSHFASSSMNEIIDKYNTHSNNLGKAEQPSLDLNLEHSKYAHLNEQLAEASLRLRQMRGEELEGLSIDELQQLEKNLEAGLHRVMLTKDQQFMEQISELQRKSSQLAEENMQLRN
How it was run: as §1

OsMADS45 aa 98-249 = target: T17, OsMADS45 aa 98-249 (Oryza sativa, UniProt P0C5B0 98-249); test: Y2H; output trait library
T17 construct: prey, AD fusion; also called PN20231
T17 sequence: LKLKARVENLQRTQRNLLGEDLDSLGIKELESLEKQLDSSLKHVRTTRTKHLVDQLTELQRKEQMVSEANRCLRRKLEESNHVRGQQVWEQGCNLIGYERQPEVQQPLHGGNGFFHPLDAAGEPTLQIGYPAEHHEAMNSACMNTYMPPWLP
How it was run: as §1

OsBAA81880 aa 24-203 = target: T18, OsBAA81880 aa 24-203 (Oryza sativa, UniProt Q9XJ66 24-203); test: Y2H; output trait library
T18 construct: prey, AD fusion; also called PN20837
T18 sequence (Q9XJ66 24-203): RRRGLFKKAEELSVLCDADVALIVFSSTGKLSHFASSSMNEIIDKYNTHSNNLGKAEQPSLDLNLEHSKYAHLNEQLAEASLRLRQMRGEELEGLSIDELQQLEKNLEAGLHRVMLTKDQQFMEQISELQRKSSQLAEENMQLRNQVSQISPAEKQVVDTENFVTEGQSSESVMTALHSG
How it was run: as §1

OsMADS8 aa 79-248 = target: T19, OsMADS8 aa 79-248 (Oryza sativa, UniProt Q9SAR1 79-248); test: Y2H; output trait library
T19 construct: prey, AD fusion; also called PN20778
T19 sequence: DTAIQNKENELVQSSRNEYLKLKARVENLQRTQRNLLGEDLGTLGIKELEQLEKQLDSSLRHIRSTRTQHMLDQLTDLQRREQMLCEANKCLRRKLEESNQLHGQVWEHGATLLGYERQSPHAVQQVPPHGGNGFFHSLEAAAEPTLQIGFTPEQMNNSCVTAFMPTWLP
How it was run: as §1

OsMADS1 aa 73-239 = target: T20, OsMADS1 aa 73-239 (Oryza sativa, UniProt A2XDY1 73-239); test: Y2H; output trait library
T20 construct: prey, AD fusion; also called PN19788
T20 sequence: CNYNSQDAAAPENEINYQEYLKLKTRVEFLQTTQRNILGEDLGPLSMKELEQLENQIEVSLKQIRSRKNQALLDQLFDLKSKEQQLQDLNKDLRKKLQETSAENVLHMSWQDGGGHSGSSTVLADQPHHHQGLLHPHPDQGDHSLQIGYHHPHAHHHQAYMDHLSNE
How it was run: as §1

binding result (OsFDRMADS6 aa 1-186): binds | binding result (OsMADS6 aa 116-250): binds | binding result (OsMADS5 aa 109-225): binds | binding result (OsMADS1 aa 95-257): binds | binding result (OsMADS8 aa 107-248): binds | binding result (OsFDRMADS8 aa 53-233): binds | binding result (OsMADS45 aa 75-249): binds | binding result (OsMADS1 aa 100-231): binds | binding result (OsMADS45 aa 96-249): binds | binding result (OsMADS8 aa 75-248): binds | binding result (OsMADS17 aa 106-249): binds | binding result (OsPN22834 aa 112-278): binds
B1: OsRAP1B aa 1-247 (other)
chain: MGRGKVQLKRIENKINRQVTFSKRRSGLLKKANEISVLCDAEVALIIFSTKGKLYEYATDSCMDKILERYERYSYAEKVLISAESDTQGNWCHEYRKLKAKVETIQKCQKHLMGEDLESLNLKELQQLEQQLENSLKHIRSRKSQLMLESINELQRKEKSLQEENKVLQKELVEKQKVQKQQLQWDQTQPQTISSSSSFMMREALPTTNISNYPAAAGERIEDVPAGQPQHVRIGLPPWMLSHING
notes: bait, Gal4 DBD fusion; also called PN20232

binding result (OsRAP1B aa 30-180): binds
B2: OsMADS5 aa 106-225 (other)
chain: LQTTQRNLLGEDLVPLSLKELEQLENQIEISLMNIRSSKNQQLLDQVFELKRKEQQLQDANKDLKRKIQETSGENMLHISCQDVGPSGHASEANQEFLHHAICDPSLHIGYQAYMDHLNQ
notes: prey, AD fusion; also called PN20770

binding result (OsMADS5 aa 108-225): binds | binding result (OsMADS45 aa 69-249): binds | binding result (OsBAA81880 aa 2-168): binds | binding result (OsMADS45 aa 98-249): binds | binding result (OsBAA81880 aa 24-203): binds | binding result (OsMADS8 aa 79-248): binds | binding result (OsMADS1 aa 73-239): binds
B3: OsRAP1B aa 125-235 (other)
chain: LQQLEQQLENSLKHIRSRKSQLMLESINELQRKEKSLQEENKVLQKELVEKQKVQKQQLQWDQTQPQTISSSSSFMMREALPTTNISNYPAAAGERIEDVPAGQPQHVRIG
notes: as for B1
